The results in this text go back to PMC11506342, “Ratiometric Electrochemical Detection of Interleukin-6 Using Electropolymerized Methylene Blue and a Multi-Walled Carbon-Nanotube-Modified Screen-Printed Carbon Electrode”.

In this data set the target is interleukin-6 (IL-6) (UniProt P05231 30-212). Kind of data set: electrochemical aptasensor (DPV, [Fe(CN)6]3-/4- vs poly-methylene blue); aptamer immobilised on CS/MWCNT/pMB electrode, BSA blocked; 30 min incubation; linear 0.001-1000 ng/mL, LOD 0.54 pg/mL (not a Kd); 1 uM aptamer for immobilisation, IL-6 incubated 30 min with stirring; binding buffer, salt, pH and temperature not given in the material. Conditions: protein: commercial; hairpin (stated).
interleukin-6 (IL-6), sequence (P05231 30-212): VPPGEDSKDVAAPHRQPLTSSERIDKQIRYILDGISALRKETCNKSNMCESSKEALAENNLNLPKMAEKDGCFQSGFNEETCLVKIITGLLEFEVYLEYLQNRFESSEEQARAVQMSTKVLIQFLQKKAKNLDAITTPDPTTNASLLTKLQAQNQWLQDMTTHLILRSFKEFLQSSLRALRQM

In the case of GGTGGCAGGAGGACTATTTATTTGCTTTTCT (ssDNA, 3'-NH2) [IL-6 aptamer (NH2-Apt)], the binding result is given as “binds”.
